# Test results from patent publication US20250019412A1 (ALPINE IMMUNE SCIENCES, published 2025).
# Values joined by “and” are separate entries in the source; they are usually repeats but may differ in a detail not shown here. Identical values can stand only once. Like-named read-outs stand apart in the source and are kept apart here.
# T1: recombinant human APRIL (human, UniProt O75888 105-250, limits assumed)
# T1 sequence (looked up): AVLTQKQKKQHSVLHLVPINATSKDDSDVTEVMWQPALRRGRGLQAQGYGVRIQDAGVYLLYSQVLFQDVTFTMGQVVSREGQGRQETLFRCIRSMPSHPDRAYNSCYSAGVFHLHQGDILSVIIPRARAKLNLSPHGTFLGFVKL
# Assays:
# [1] = molecular target: recombinant human BAFF (human) (UniProt Q9Y275); assay: cell-based or functional assay
# recombinant human APRIL [2] = molecular target: T1, recombinant human APRIL; assay: cell-based or functional assay
# [3] = molecular target: recombinant human BAFF (human) (UniProt Q9Y275)
# recombinant human APRIL [4] = molecular target: T1, recombinant human APRIL; assay: cell-based or functional assay; remark: listed apart in the source
# recombinant human BAFF [5] = molecular target: T2, recombinant human BAFF (human, UniProt Q9Y275 134-285); assay: cell-based or functional assay
# recombinant human BAFF [6] = molecular target: T2, recombinant human BAFF; assay: cell-based or functional assay; remark: listed apart in the source
# recombinant human BAFF [7] = molecular target: T2, recombinant human BAFF; assay: cell-based or functional assay; remark: listed apart in the source
# recombinant human APRIL [8] = molecular target: T1, recombinant human APRIL; assay: cell-based or functional assay; remark: listed apart in the source
# recombinant human APRIL [9] = molecular target: T1, recombinant human APRIL; assay: cell-based or functional assay; remark: listed apart in the source
# recombinant human BAFF [10] = molecular target: T2, recombinant human BAFF; assay: cell-based or functional assay; remark: listed apart in the source
# recombinant human APRIL [11] = molecular target: T1, recombinant human APRIL; assay: cell-based or functional assay; remark: listed apart in the source
# Chain of TACI 30-110-Fc (Fc fusion) (chain): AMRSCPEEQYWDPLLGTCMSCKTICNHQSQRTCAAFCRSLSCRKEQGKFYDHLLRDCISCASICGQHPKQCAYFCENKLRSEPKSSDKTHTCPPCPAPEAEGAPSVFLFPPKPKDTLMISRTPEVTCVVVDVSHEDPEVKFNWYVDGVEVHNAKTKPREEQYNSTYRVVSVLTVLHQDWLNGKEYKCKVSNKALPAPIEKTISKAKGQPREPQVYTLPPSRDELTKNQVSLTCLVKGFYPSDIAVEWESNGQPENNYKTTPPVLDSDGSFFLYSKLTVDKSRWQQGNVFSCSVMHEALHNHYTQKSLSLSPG
# Chain of TACI 13-118-Fc (Fc fusion) (chain): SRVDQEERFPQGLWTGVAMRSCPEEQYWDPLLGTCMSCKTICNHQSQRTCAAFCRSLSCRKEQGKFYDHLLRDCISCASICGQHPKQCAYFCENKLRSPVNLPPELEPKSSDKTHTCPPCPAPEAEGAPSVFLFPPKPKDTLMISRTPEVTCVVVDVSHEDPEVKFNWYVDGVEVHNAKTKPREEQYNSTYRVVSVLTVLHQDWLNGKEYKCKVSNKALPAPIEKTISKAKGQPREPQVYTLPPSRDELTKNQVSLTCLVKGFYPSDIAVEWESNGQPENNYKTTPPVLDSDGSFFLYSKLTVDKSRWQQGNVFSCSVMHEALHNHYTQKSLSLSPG
Molecule,BAFF IC50 (pM) [1],BAFF IC50 (ΔWT) (fold of WT TACI (68-110)-Fc) [1],APRIL IC50 (pM) (recombinant human APRIL [2]),APRIL IC50 (ΔWT) (fold of WT TACI (68-110)-Fc) (recombinant human APRIL [2]),further results
TACI vTD-Fc Y102D (SEQ ID NO: 190) (Fc fusion),–,–,11600,–,–
TACI 13-118-Fc (Fc fusion),7900 pM,4.26,–,–,IC50 (nM) BAFF [1]: 8450 nM; IC50 BAFF (Δ TACI 30-110) (fold of TACI 30-110) [1]: 1.88; IC50 BAFF (Δ TACI 30-110-Fc) (fold of TACI 30-110-Fc) [1]: 1.33; IC50 (nM) APRIL (recombinant human APRIL [2]): 7810 nM; IC50 APRIL (Δ TACI 30-110) (fold of TACI 30-110) (recombinant human APRIL [2]): 1.81; IC50 APRIL (Δ TACI 30-110-Fc) (fold of TACI 30-110-Fc) (recombinant human APRIL [2]): 2.37
TACI 30-110-Fc (Fc fusion),7740 pM,4.17,–,–,IC50 (nM) BAFF [1]: 4490 nM; IC50 BAFF (Δ TACI 30-110) (fold of TACI 30-110) [1]: 1; IC50 BAFF (Δ TACI 30-110-Fc) (fold of TACI 30-110-Fc) [1]: 1; IC50 (nM) APRIL (recombinant human APRIL [2]): 4320 nM; IC50 APRIL (Δ TACI 30-110) (fold of TACI 30-110) (recombinant human APRIL [2]): 1; IC50 APRIL (Δ TACI 30-110-Fc) (fold of TACI 30-110-Fc) (recombinant human APRIL [2]): 1
TACI vTD-Fc F78Y (SEQ ID NO: 183) (Fc fusion),1640 pM,0.88,176,0.01,–
"TACI vTD-Fc K77E, A101D (SEQ ID NO: 25) (Fc fusion)",1960 pM,1.06,2040,0.17,"IC50 (read off the curve): blockade of human BAFF signalling via TACI (NF-κB luciferase reporter, Jurkat/NF-κB/TACI cells) [3]: 0.6 nM"
"TACI vTD-Fc F78Y, A101D (SEQ ID NO: 185) (Fc fusion)",1850 pM,1,2020,0.16,–
"TACI vTD-Fc Q75E, K77E (SEQ ID NO: 178) (Fc fusion)",1890 pM,1.02,10700,0.87,–
TACI vTD-Fc R84Q (SEQ ID NO: 30) (Fc fusion),5490 pM,2.96,566,0.05,"IC50 (read off the curve): blockade of human BAFF signalling via TACI (NF-κB luciferase reporter, Jurkat/NF-κB/TACI cells) [3]: 1 nM"
TACI vTD-Fc A101D (SEQ ID NO: 23) (Fc fusion),1830 pM,0.99,8380,0.68,"IC50 (read off the curve): blockade of human BAFF signalling via TACI (NF-κB luciferase reporter, Jurkat/NF-κB/TACI cells) [3]: 0.6 nM"
"TACI vTD-Fc K77E, F78Y (SEQ ID NO: 191) (Fc fusion)",1970 pM,1.06,10100,0.82,–
"TACI vTD-Fc F78Y, R84Q (SEQ ID NO: 184) (Fc fusion)",2260 pM,1.22,2620,0.21,–
BAFF-R ECD (from UniProt Q96RJ3 1-78) (receptor),53200 pM,28.7,–,–,–
"belimumab (antibody, V domains shown) VH: QVQLQQSGAEVKKPGSSVRVSCKASGGTFNNNAINWVRQAPGQGLEWMGGIIPMFGTAKYSQNFQGRVAITADESTGTASMELSSLRSEDTAVYYCARSRDLLLFPHHALSPWGRGTMVTVSS VL: SSELTQDPAVSVALGQTVRVTCQGDSLRSYYASWYQQKPGQAPVLVIYGKNNRPSGIPDRFSGSSSGNTASLTITGAQAEDEADYYCSSRDSSGNHWVFGGGTELTVLG",–,–,–,–,IC50 APRIL (Δ TACI 30-110-Fc) (recombinant human APRIL [4]): 55.8 fold of TACI 30-110-Fc; IC50 BAFF (Δ TACI 30-110-Fc) (recombinant human BAFF [5]): 0.43 fold of TACI 30-110-Fc; BAFF IC50 (pM) (recombinant human BAFF [6]): 2200 pM; BAFF IC50 (ΔWT) (recombinant human BAFF [6]): 1.18 fold of WT TACI (68-110)-Fc
20 TACI CRD2-Fc (Fc fusion) variant TACI domain - linker - Fc fusion chain: SLSCRKEQGKFYDHLLGDCISCASICGQHPKQCAYFCENKLRSGSGGGGSEPKSSDKTHTCPPCPAPEAEGAPSVFLFPPKPKDTLMISRTPEVTCVVVDVSHEDPEVKFNWYVDGVEVHNAKTKPREEQYNSTYRVVSVLTVLHQDWLNGKEYKCKVSNKALPAPIEKTISKAKGQPREPQVYTLPPSRDELTKNQVSLTCLVKGFYPSDIAVEWESNGQPENNYKTTPPVLDSDGSFFLYSKLTVDKSRWQQGNVFSCSVMHEALHNHYTQKSLSLSPG,–,–,–,–,"IC50 (read off the curve): blockade of human BAFF signalling via TACI (NF-κB luciferase reporter, Jurkat/NF-κB/TACI cells) (recombinant human BAFF [7]): ~0.7 nM"
31 TACI CRD2-Fc (Fc fusion) variant TACI domain - linker - Fc fusion chain: SLSCRKEQGKFYDHLLQDCINCASICGQHPKQCDYFCENKLRSGSGGGGSEPKSSDKTHTCPPCPAPEAEGAPSVFLFPPKPKDTLMISRTPEVTCVVVDVSHEDPEVKFNWYVDGVEVHNAKTKPREEQYNSTYRVVSVLTVLHQDWLNGKEYKCKVSNKALPAPIEKTISKAKGQPREPQVYTLPPSRDELTKNQVSLTCLVKGFYPSDIAVEWESNGQPENNYKTTPPVLDSDGSFFLYSKLTVDKSRWQQGNVFSCSVMHEALHNHYTQKSLSLSPG,–,–,–,–,"IC50 (read off the curve): blockade of human BAFF signalling via TACI (NF-κB luciferase reporter, Jurkat/NF-κB/TACI cells) (recombinant human BAFF [7]): ~0.6 nM"
7 TACI CRD1/CRD2-Fc (Fc fusion) variant TACI domain - linker - Fc fusion chain: VAMRSCPEEQYWDPLLGTCMSCKTICNHQSQRTCAAFCRSLSCRKEQGKFYDHLLRDCISCASICGQHPKQCDYFCENKLRSGSGGGGSEPKSSDKTHTCPPCPAPEAEGAPSVFLFPPKPKDTLMISRTPEVTCVVVDVSHEDPEVKFNWYVDGVEVHNAKTKPREEQYNSTYRVVSVLTVLHQDWLNGKEYKCKVSNKALPAPIEKTISKAKGQPREPQVYTLPPSRDELTKNQVSLTCLVKGFYPSDIAVEWESNGQPENNYKTTPPVLDSDGSFFLYSKLTVDKSRWQQGNVFSCSVMHEALHNHYTQKSLSLSPG,–,–,–,–,"IC50 (read off the curve): blockade of human APRIL signalling via TACI (NF-κB luciferase reporter, Jurkat/NF-κB/TACI cells) (recombinant human APRIL [8]): ~3 nM; IC50 (read off the curve): blockade of human BAFF signalling via TACI (NF-κB luciferase reporter, Jurkat/NF-κB/TACI cells) (recombinant human BAFF [7]): ~2 nM"
"TACI 13-118, with K77E/F78Y/Y102D, Fc fusion (Fc fusion) SRVDQEERFPQGLWTGVAMRSCPEEQYWDPLLGTCMSCKTICNHQSQRTCAAFCRSLSCRKEQGEYYDHLLRDCISCASICGQHPKQCADFCENKLRSPVNLPPELEPKSSDKTHTCPPCPAPEAEGAPSVFLFPPKPKDTLMISRTPEVTCVVVDVSHEDPEVKFNWYVDGVEVHNAKTKPREEQYNSTYRVVSVLTVLHQDWLNGKEYKCKVSNKALPAPIEKTISKAKGQPREPQVYTLPPSRDELTKNQVSLTCLVKGFYPSDIAVEWESNGQPENNYKTTPPVLDSDGSFFLYSKLTVDKSRWQQGNVFSCSVMHEALHNHYTQKSLSLSPG",–,–,–,–,IC50 (nM) APRIL (recombinant human APRIL [9]): 848 nM; IC50 APRIL (Δ TACI 30-110) (recombinant human APRIL [9]): 0.2 fold of TACI 30-110; IC50 (nM) BAFF (recombinant human BAFF [10]): 2050 nM; IC50 BAFF (Δ TACI 30-110) (recombinant human BAFF [10]): 0.46 fold of TACI 30-110; APRIL IC50 (pM) (recombinant human APRIL [11]): 13200 pM; APRIL IC50 (ΔWT) (recombinant human APRIL [11]): 1.07 fold of WT TACI (68-110)-Fc; BAFF IC50 (pM) (recombinant human BAFF [6]): 1990 pM; BAFF IC50 (ΔWT) (recombinant human BAFF [6]): 1.07 fold of WT TACI (68-110)-Fc

# Continued, in another order:
BAFF IC50 (pM) [1],BAFF IC50 (ΔWT) (fold of WT TACI (68-110)-Fc) [1],APRIL IC50 (pM) (recombinant human APRIL [2]),APRIL IC50 (ΔWT) (fold of WT TACI (68-110)-Fc) (recombinant human APRIL [2]),Molecule,further results
2260 pM,1.22,4260,0.35,"TACI vTD-Fc K77E, R84Q (SEQ ID NO: 24) (Fc fusion)","IC50 (read off the curve): blockade of human BAFF signalling via TACI (NF-κB luciferase reporter, Jurkat/NF-κB/TACI cells) [3]: 0.6 nM"
2210 pM,1.19,10100,0.82,"TACI vTD-Fc K77E, F78Y, R84Q (SEQ ID NO: 182) (Fc fusion)",–
2350 pM,1.27,11200,0.91,"TACI vTD-Fc R84Q, A101D (SEQ ID NO: 187) (Fc fusion)",–
1460 pM,0.79,1940,0.16,TACI vTD-Fc Q75E (SEQ ID NO: 177) (Fc fusion),–
1860 pM,1.01,12300,1,"TACI vTD-Fc R84Q, Y102D (SEQ ID NO: 188) (Fc fusion)",–
1540 pM,0.83,159,0.01,TACI vTD-Fc K77E (SEQ ID NO: 32) (Fc fusion),–
–,–,11100,–,"TACI vTD-Fc Q75E, Y102D (SEQ ID NO: 181) (Fc fusion)",–
1950 pM,1.05,33600,2.72,"TACI vTD-Fc A101D, Y102D (SEQ ID NO: 189) (Fc fusion)",–
1790 pM,0.97,13400,1.09,"TACI vTD-Fc Q75E, F78Y (SEQ ID NO: 179) (Fc fusion)",–
1960 pM,1.06,8490,0.69,"TACI vTD-Fc F78Y, Y102D (SEQ ID NO: 186) (Fc fusion)",–
2180 pM,1.17,891,0.07,"TACI vTD-Fc K77E, Y102D (SEQ ID NO: 192) (Fc fusion)",–
2360 pM,1.27,20000,1.62,"TACI vTD-Fc Q75E, A101D (SEQ ID NO: 180) (Fc fusion)",–
9170 pM and 7300 pM,4.95 and 3.94,–,–,"Telitacicept (label of two rows of Table E29) (Fc fusion, not shown: a dimerising Fc or GST) SRVDQEERFPQGLWTGVAMRSCPEEQYWDPLLGTCMSCKTICNHQSQRTCAAFCRSLSCRKEQGKFYDHLLRDCISCASICGQHPKQCAYFCENKLRSPVNLPPEL",–
